From patent US9797889B2, “Activation of bioluminescence by structural complementation” (Promega Corporation, priority 2013, dated 2017)

What was measured:
5P = 5P (Oplophorus gracilirostris, UniProt Q9GV45, A31E/A60N/A81I/D135N/F95D/G42A/G62A/G78A/G94A/G98A/I117V/K70R/L176M/L54V/L99Q/M102K/N171T/P142E/Q151K/Q38E/Q45L/V71I/Y165I); test: Titration of 5P with NLpep88-HT (Example 47); assay type: biochemical; details: lower concentrations of NLpep88
[1] = biological target: wild-type non-luminescent polypeptide (Oplophorus gracilirostris, UniProt Q9GV45, A31E/A60N/A81I/F95D/I117V/K70R/L54V/L99Q/M102K/P142E/Q151K/Q38R/Q45L/V71I/Y165I); test: NLpep mutant luminescence with wild-type NLpoly lysate (Examples 7, 8, 12, 13); details: mutations based on alignment to fatty acid binding proteins
11S = 11S (Oplophorus gracilirostris, UniProt Q9GV45, A31E/A60N/A81I/D135N/F58L/F95D/G42A/G62A/G78A/G94A/G98A/H120P/I103V/I117V/I134L/K70R/L176M/L54V/L73R/L99Q/M102E/N171T/P142E/Q151K/Q38E/Q45L/V71I/Y165I); test: Substrate effect on 11S/NLpep79 Kd (Example 55); assay type: binding; details: saturating (50 uM) vs sub-saturating (5 uM) furimazine
[…] [2] = biological target: T1, […] (Oplophorus gracilirostris, UniProt Q9GV45); test: Luminescence of non-luminescent polypeptide mutants upon complementation (Example 5, Table 4); details: complementation with peptide […]; induced E. coli culture, NANOGLO reagent
[…] [3] = biological target: T1, […]; test: as above; details: complementation with peptide […]; induced E. coli culture, NANOGLO reagent; remark: listed apart in the source
[4] = Luminescence of NLpoly without NLpep (Example 57); assay type: biochemical; details: E. coli clarified lysate, NanoGlo+Fz
Experimental: 50 uL of each lysate and 50 uL NanoGlo+Fz were mixed and incubated for 5 min RT. Luminescence was measured on GloMax® Multi+ with 0.5 sec integration.

NLpep78-HT or NLpep79-HT = test: NLpoly variant luminescence without NLpep, with NLpep78-HT or NLpep79-HT (Examples 62, 93); assay type: biochemical; details: E. coli expression culture
Experimental: Single NLpoly variant colonies were inoculated with 200 uL minimal media and grown for 20 hrs at 37° C. on a shaker. 10 uL of the overnight culture were diluted into 190 uL fresh minimal media and grown for 20 hrs at 37° C. on a shaker. 10 uL of this overnight culture was then diluted into 190 uL auto-induction media (previously described) and grown for 18 hrs at 25° C. on a shaker. 10 uL of this expression culture was mixed with 40 uL of assay lysis buffer (previously described) without NLpep or NLpep78-HT (1:3,860 dilution) or NLpep79-HT (1:10,000 dilution) and shaken for 10 min at RT. 50 uL of NanoGlo+Fz was added and again shake for 10 min at RT. Luminescence was measured on GloMax® luminometer with 0.5 sec integration. FIGS. 105-107 illustrate the luminescence of various NLpolys in the absence of NLpep.
A single colony of various NLpolys were inoculated individually into 200 uL minimal media and grown for 20 hrs at 37° C. on shaker. […] 10 uL of this overnight culture was diluted into 190 uL auto-induction media (previously described) and grow for 18 hrs at 25° C. on shaker. 10 uL of the expression culture was mixed with 40 uL of assay lysis buffer (previously described) without NLpep or with NLpep78-HT (1:3,860 dilution) or NLpep79-HT (1:10,000 dilution).

NLpep79 = test: Substrate specificity of NLpoly 5P and 11S with NLpep79 (Example 97); assay type: biochemical; details: with NLpep79, 11S compared with 5P
Experimental: E. coli clarified lysates were prepared for NLpoly 5P or 11S as described previously. The NLpoly lysates were then serially diluted in steps of 10-fold into PBS+0.1% Prionex.

Sequence of wild-type non-luminescent polypeptide (Q9GV45 other isoform, or with tags, fused parts or gaps with the stated changes): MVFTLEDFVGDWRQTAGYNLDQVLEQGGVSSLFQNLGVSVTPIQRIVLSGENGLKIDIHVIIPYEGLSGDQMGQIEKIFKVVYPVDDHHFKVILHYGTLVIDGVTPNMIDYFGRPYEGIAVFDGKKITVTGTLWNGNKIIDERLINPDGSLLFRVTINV
Sequence of 5P (Q9GV45 other isoform, or with tags, fused parts or gaps with the stated changes): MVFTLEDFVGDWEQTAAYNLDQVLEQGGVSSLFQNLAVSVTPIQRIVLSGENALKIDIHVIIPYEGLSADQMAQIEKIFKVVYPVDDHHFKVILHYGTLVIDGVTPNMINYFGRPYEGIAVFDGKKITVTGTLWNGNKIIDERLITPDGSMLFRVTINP

NVSGWGLFKKISN [NLpep88]
luminescence of 5P titrated with NLpep88-HT (5P): no increase in luminescence above 5P alone

GVTAWRLCERILA [NLpep3]
activity (luminescence) of single-mutation NLpep with wild-type NLpoly [1]: not likely to be tolerated

DVTGWRLCERILA [NLpep2]
activity (luminescence) of single-mutation NLpep with wild-type NLpoly [1]: retains/improves activity

GVTGWRLCERISA [NLpep5]
activity (luminescence) of single-mutation NLpep with wild-type NLpoly [1]: retains/improves activity

NVTGYRLFKKISN [NLpep79]
affinity between 11S and NLpep79 (11S): increase the affinity

GVTGWRLCKRILA [NLpep4]
activity (luminescence) of single-mutation NLpep with wild-type NLpoly [1]: retains/improves activity

B1: L149M (protein)
chain: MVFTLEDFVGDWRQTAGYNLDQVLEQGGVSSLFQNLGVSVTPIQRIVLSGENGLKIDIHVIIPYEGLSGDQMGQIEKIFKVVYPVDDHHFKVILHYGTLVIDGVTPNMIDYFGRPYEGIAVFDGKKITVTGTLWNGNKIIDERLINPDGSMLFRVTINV
luminescence relative to wild-type, RLU(mutant)/RLU(WT) ([…] [2]): 2.89 RLU(mutant)/RLU(WT) | luminescence relative to wild-type, RLU(mutant)/RLU(WT) ([…] [3]): 2.16 RLU(mutant)/RLU(WT)

B2: 11S: NLpoly variant 11S (12S-51) (protein)
chain: MVFTLEDFVGDWEQTAAYNLDQVLEQGGVSSLLQNLAVSVTPIQRIVRSGENALKIDIHVIIPYEGLSADQMAQIEEVFKVVYPVDDHHFKVILPYGTLVIDGVTPNMLNYFGRPYEGIAVFDGKKITVTGTLWNGNKIIDERLITPDGSMLFRVTINS
luminescence in the absence of NLpep relative to WT NLpoly [4]: ~500 fold | luminescence of NLpoly variant without NLpep or with NLpep78 or NLpep79 (NLpep78-HT or NLpep79-HT): improved luminescence over the other variants | substrate specificity for furimazine (NLpep79): superior specificity for furimazine than 5P
